Results published in PMC6668440, “A one-gate elevator mechanism for the human neutral amino acid transporter ASCT2” (Nature Communications, 2019).

Target: the molecule itself
Assay: cryo-EM structure; single particle cryo-EM of the purified transporter in mixed DDM + CHS micelles (20 mM Tris-HCl pH 7.4, 300 mM NaCl); ASCT2_(C467R) with 1 mM DL-TBOA and without inhibitor, ASCT2wt without substrate; C3 symmetry imposed, classifications without symmetry also done

Protein | stoichiometry N | binding result
human Alanine Serine Cysteine Transporter 2 with the C467R mutation (ASCT2_(C467R)) (natural protein, human ASCT2 (SLC1A5), codon optimised gene on the pPICZ-A plasmid, with the single point mutation C467R; residues 43-159 and 177-489 were modelled in the map; Homotrimer (172 kDa) in DDM + CHS micelles; the tag and the limits are not described here; also called SLC1A5 C467R; source: Pichia pastoris X-33, purified (DDM/CHS solubilisation, Ni2+-Sepharose, Superdex 200 SEC)) MVADPPRDSKGLAAAEPTANGGLALASIEDQGAAAGGYCGSRDQVRRCLRANLLVLLTVVAVVAGVALGLGVSGAGGALALGPERLSAFVFPGELLLRLLRMIILPLVVCSLIGGAASLDPGALGRLGAWALLFFLVTTLLASALGVGLALALQPGAASAAINASVGAAGSAENAPSKEVLDSFLDLARNIFPSNLVSAAFRSYSTTYEERNITGTRVKVPVGQEVEGMNILGLVVFAIVFGVALRKLGPEGELLIRFFNSFNEATMVLVSWIMWYAPVGIMFLVAGKIVEMEDVGLLFARLGKYILCCLLGHAIHGLLVLPLIYFLFTRKNPYRFLWGIVTPLATAFGTSSSSATLPLMMKCVEENNGVAKHISRFILPIGATVNMDGAALFQCVAAVFIAQLSQQSLDFVKIITILVTATASSVGAAGIPAGGVLTLAIILEAVNLPVDHISLILAVDWLVDRSRTVLNVEGDALGAGLLQNYVDRTESRSTEPELIQVKSELPLDPLPVPTEEGNPLLKHYRGPAGDATVASEKESVM | 3 | 
human Alanine Serine Cysteine Transporter 2, wild type (ASCT2wt) (natural protein, human ASCT2 (SLC1A5), codon optimised gene on the pPICZ-A plasmid; Only a map (6.98 Å, C3 imposed) was deposited, no model; also called SLC1A5) MVADPPRDSKGLAAAEPTANGGLALASIEDQGAAAGGYCGSRDQVRRCLRANLLVLLTVVAVVAGVALGLGVSGAGGALALGPERLSAFVFPGELLLRLLRMIILPLVVCSLIGGAASLDPGALGRLGAWALLFFLVTTLLASALGVGLALALQPGAASAAINASVGAAGSAENAPSKEVLDSFLDLARNIFPSNLVSAAFRSYSTTYEERNITGTRVKVPVGQEVEGMNILGLVVFAIVFGVALRKLGPEGELLIRFFNSFNEATMVLVSWIMWYAPVGIMFLVAGKIVEMEDVGLLFARLGKYILCCLLGHAIHGLLVLPLIYFLFTRKNPYRFLWGIVTPLATAFGTSSSSATLPLMMKCVEENNGVAKHISRFILPIGATVNMDGAALFQCVAAVFIAQLSQQSLDFVKIITILVTATASSVGAAGIPAGGVLTLAIILEAVNLPVDHISLILAVDWLVDRSCTVLNVEGDALGAGLLQNYVDRTESRSTEPELIQVKSELPLDPLPVPTEEGNPLLKHYRGPAGDATVASEKESVM |  | binds
